This note sets out measurements from article PMC9296380, “Characterisation of recombinant GH 3 β-glucosidase from β-glucan producing Levilactobacillus brevis TMW 1.2112” (Antonie Van Leeuwenhoek, 2022).

Substrate in the data set: O=[N+]([O-])c1ccc(O[C@@H]2O[C@H](CO)[C@@H](O)[C@H](O)[C@H]2O)cc1
Briefly: purified protein. It is filed as biochemical, Levilactobacillus brevis. The conditions noted are these: 50 mM PBS buffer pH 7, 37 °C, 0.01-20 mM substrate.

B1: BglB (Levilactobacillus brevis) (protein)
chain: MDIERTLAELTLPEKAALVSGKNNWYTAAVDRLDLPALMMTDGPSGLRKQTNSGTTNINDAIQAITYPAAALSASTWNESLMHQLGEHLGIEARAEQVSLLLGPGVNMKRSPLGGRNFEYLAEDPLVAGKLGSAYVQGVQSQHVGVAVKHFAANNRENQRFTASSDMSERTLRELYLRTFEIIVKSAYPATIMTSYNKINGVLNSQNERLLRRILRDEWGFHGAVMSDWGAVANTVQALKAGLDLEMPGKGQASVNDIIRAVHTGELDEGTLNKAVRHLLHVVDDWLPADHAQPYDHAAHHQFARKLADDGIILLKNHEDELPLDPQTTGKVVVIGELAENPRFQGSGSSHVNPTKLVSPLDALADSGLKADYYPGYRLDQSETNGDLAEAALTAAKTADHVIIFAGYPETAESEGFDKASLMLPENQSDLIGSLAKANVHTTVVLQNGSAVEMPWIHSVAAVVETYLAGEAVGEATWDIITGAVNPSGHLTETFPRRLTDTPMAPTFGQDPHHEYYTEGIFMGYRYYDTHEMHVLFPFGHGLSYTTFEYTNLKLTQNERGATVTFDVTNTGARSGQAVPQLYIANHASHVPMPTKELRAFTKVAIAPGETETVTLALDRRDFSWWCEPKARWQADSGDYEVMIGESSRDIRLQVKLTMDFKNSPAPITTETYMAAIVKNPQLRDLFKQVVLAPEYAGPENFLATTDDQGSLQIFQDRMFMNMPLRAVVALGGPQALITDFITRANTLLRQ
notes: no signal peptide predicted; C-terminal His tag (stop codon removed, Myc region excised) from pBAD/Myc-His A; expressed in E. coli BL21, Ni-NTA purified; primer-encoded N-terminus MDIERTLAEL
For orientation: Km means the substrate concentration at which the rate is half of its maximum. For orientation: kcat means the maximal rate divided by the concentration of active sites. For B1, the Michaelis constant (Km) is 220 µM and the kcat amounted to 59.58 s⁻¹.
